Measurements: PMC12373997, “Conserved function of the HAUS6 calponin homology domain in anchoring augmin for microtubule branching” (Nature Communications, 2025)

Biological target: T1, Taxol-stabilized microtubules polymerised from purified porcine brain tubulin (porcine, UniProt P02550 1-451; P02554 1-439)
T1 construct: P81947 was used only for the MD model; Q6B856 was used only for the MD model; Polymer of α/β-tubulin heterodimers (13- and 14-protofilament MTs in cryo-EM); brain tubulin is probably a mix of isotypes; Concentrations are α/β-tubulin heterodimer molarity; also called MTs; MT; source: tubulin purified from porcine brain; polymerised in vitro with GTP and paclitaxel
Test: co-sedimentation; tubulin co-sedimentation: taxol-stabilized MTs (varied, α/β-tubulin heterodimer molarity) with 1 µM purified N-clamp, 0.25 mg/ml BSA, BRB80-MT buffer (80 mM PIPES, 1 mM MgCl2, 1 mM EGTA, 12.5% glycerol, pH 6.8), 20 min at room temperature, 200,000 g 10 min 27 °C; SDS-PAGE densitometry of pellet; apparent Kd from a quadratic fit
Details: both partners purified

B1: D. melanogaster augmin N-clamp with Dgt4 lacking its N-terminal extension (complex)
chain 1: MSDAVDKMLAGMAANRQTMNRQLAKIDEIMERSNNTLLHIESNSKAFSQNVALSETQKMYNLRPEAEMTLSKILENFKLLMSSSDQREETYSALEGCLAYRHRVEHLGSSVRKLVALYDTVGQMKNSQEEQYASEDSP
chain 2: MDRTIIAPWKAEEKEQSEKLHRKLQGLALVHPLPDELRKLIAWDMFLKPNQVAFVHVMHYLFRLLDPAEFKRRFFWPITDKKSEANFRSSTVEYLKHLNEKHQLHWANIKSYLVVMPGGMRFINFLLEFVGFVIQELIKQREKSLGLEAGTPNVSAKVMARQNAVMKEYASSYVVNLEENTALLRDKTQKIRRLMADLSADMGVPEEQLADDGFLDEFEATAALGVERVITQPTERKFDLEASLCGLKEAIDLFQVKQAENNQSKEAVEKALRGMRVLFD
chain 3: METNVDFSSISSKLYRKYAQHVRNLKDVCVSKTVMKPGAFFDSLQQMMEEEAAATTPPRDLSSVADYAELFKTLEEYPANLQKMPKKRELQRTNSTLLRGADESVAMGINTSNVSLSLTRLEEQRSAVDVYNDFKGFQRKLAKIYDEAAALDTTESIYKQKLTQLHGFAQQLEKLMPTGGESPPDAFTSEQ
chain 4: MDDIQYLLHLEAMRRFQEDSRNVKRQVEEQVRIWLDAKCEYQRDFGRLARLLKCGALQAAVDAHRVSDVNQVDQAAKDIASLRSKLGS
modifications: Dgt4-deltaNT start (MDDIQY) read from the printed N-del primer, Dgt4 end from 9RPD entity 1; Dgt6 from 9RPD entity 2; Msd5 end is estimated from the length of the 9RPD fusion entity; Msd1 is assumed …
Binder B1 has a Kd of 2900 nM.
